According to article PMC314469, “Protein Interaction Networks by Proteome Peptide Scanning” (PLoS Biology, 2004):

T1: amphyphisin SH3 (AMPH_HUMAN), P49418
T1 chain: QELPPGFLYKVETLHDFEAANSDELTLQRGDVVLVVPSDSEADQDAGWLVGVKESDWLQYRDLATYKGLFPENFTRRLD


Columns and labels:
[1] = biological target: endophilin SH3 (SH3G2_HUMAN), Q99962; test: SPOT array
[2] = biological target: T1, amphyphisin SH3 (AMPH_HUMAN), P49418; test: SPOT array

| normalised SPOT signal, Boehringer light units (BLU); mean over the file's lines of this peptide [1] | normalised SPOT signal, Boehringer light units (BLU); mean over the file's lines of this peptide [2] | Binder |
| --- | --- | --- |
| 10200 | 9490 | GFPAPFRPSRKRSG [O43594 101-114] |
| 59.1 | 23.6 | GEPSPKRPRGRPKG [P52926 41-54] |
| 0 | 31.9 | GESRLKRPSVLISA [Q13319 50-63] |
| 200 | 34.8 | AKMPLRRPKMKKTP [O95359 373-386] |
| 1140 | 45.2 | GEVPPPRPPPPEEK [P18206 866-880] |
| 68.7 | 43.2 | GEGMFRRPSEGQSL [Q92622 499-512] |
| 1590 | 9950 | GEGGPQRPSRSQRR [O75145 4-17] |

Second part, the binder before the results:

| Binder | normalised SPOT signal, Boehringer light units (BLU); mean over the file's lines of this peptide [1] | normalised SPOT signal, Boehringer light units (BLU); mean over the file's lines of this peptide [2] |
| --- | --- | --- |
| AALRPPRPARGSRL [Q9BZJ7 202-215] | 23700 | 17100 |
| AAALPAKPPNLDAA [Q96GI7 75-89] | 73 | 53.7 |
| GGASPLRPPGAGPQ [Q9H013 877-891] | 80.4 | 63.9 |
| GGASPGRPPQPEQP [Q00056 105-119] | 845 | 38.2 |
| AKREPRRPSWSPRL [Q96BH5 55-68] | 195 | 47.1 |
| GEQAPARPPRNVQA [Q9UM81 410-423] | 527 | 3470 |
| GESRIRRPMNAFMV [Q9H6I2 64-77] | 138 | 46.4 |
| GGDALGRPPRGARS [Q9H3Z7 68-81] | 741 | 2160 |
| GFGVLRRPRPTPGD [Q9H5X0 195-208] | 74.2 | 38.4 |
| GEQTFKRPAEDTLY [Q96LK2 45-58] | 15.9 | 15.2 |
